Results published in the DeepSol protein solubility set.

Test: soluble on expression in E. coli; label from the status in PepcDB or PDB records

| Sequence | soluble on expression in E. coli |
| --- | --- |
| MKQLSGLLGELRQKLCAGFPEQAGIQQLIFPAPGLVGRQLLEWLTAQTHFPQFYWRHRDNHEEAAVCGQTRSFADMKDADDFIQQNPDANGLRIWGLNAFEPVMVFGQLTDNGLVSGKNAQASFLFLPRLEILRRGKKTSLTLNLSSETSLQKDALQAITFIDQLMAARALPVLNARIQHSSHTPGYPQWRNLIQQALNDIEQQKLDKVVLARTTTLTLNKPLSCAAFMAASRQVNHRCYHFMLRFDDRQAFLGSSPERLYLRQQLHLETEALAGTVSNLDSDPQAAVLADWLMHDEKNQRENLLVVDDICQRLQGGVTAVDVMPPEIIRLRKVQHLRRRICAQLSRASDTDCLQRLQPTAAVAGLPREAARQFIAKHELFSRGWYAGSAGYLSLKRTEFSVALRSARVDGQQIHLYAGAGIVAGSDAEQEWQEIDNKSAGLQSLLEHEAQPVKA | not soluble |
| MSHTSNFTRNFHCRSSSNKRSESEKSPSFSKKRRRARALDPDEFIPPVEGPDVQKIDSETSRKCHSIKGFNVNKDGSVRRLEDNSKYEHNKSSRQKRSEAAPLENSEGKSTKSRKLSSPSKKSNKKSISKKSDRSKVSKVKRSPKTDKELEKKPSSIYERKDVDGHDDLKVPNMRSRKHSENSKNLFDYFFWFSLQTSKMKSLNYIEMLSNGDIKAPISAVFCPTRGSSTAPNCFAIIGVWRRRKKRSVSKLIKIGFSIPQSMEILTKKGQLFPNLITRQIPMEIRAVNFAHLHFSHRLVDFASGDDVLCDRIQHTIHVQS | not soluble |
| MKNERIEKLQESWELDTRWKGITRPYSAEDVIRLRGSIDIEHTLARRGAEKLWASLHTEDYINALGALTGNQAMQQVKAGLKAIYLSGWQVAADANLSGHMYPDQSLYPANSVPAVVKRINQTLQRADQIQHMEGSGDTDYFVPIVADAEAGFGGQLNVFELMKGMIEAGASGVHFEDQLSSEKKCGHLGGKVLLPTQTAVRNLISARLAADVMGVPTIIVARTDADAADLITSDIDPVDKAFITGERTPEGFYRTKAGLDQAIARGLAYAPYADLVWCETSEPNLEDAKRFADAIHKEHPGKLLAYNCSPSFNWKQKLDEKTIASFQKEIASYGYKFQFVTLAGFHSLNYGMFELARGYKERGMAAYSELQQAEFAAEKHGYSATRHQREVGTGYFDEVAQVITGGTSSTTALKGSTEEAQFTK | not soluble |
| MYNISFTPDRPLTYHLEDDQSLARLSLVPGRGGLVTEWTVQGQPILYFDRERFQDPSLSVRGGIPILFPICGNLPQDQFNHAGKSYRLKQHGFARDLPWEVIGQQTQDNARLDLRLSHNDATLEAFPFAFELVFSYQLQGHSLRIEQRIANLGDQRMPFSLGFHPYFFCREKLGITLAIPANDYLDQKTGDCHGYDGQLNLTSPELDLAFTQISQPRAHFIDPDRNLKIEVSFSELYQTLVLWTVAGKDYLCLEPLEHHHHHH | not soluble |
| MGSDKIHHHHHHMIDSMTHRKLSKTAQPLSPTRPWHSTKATCYSAMLSTWSLSQKRLSISALILAITSTATWANEVKNQDIQAASKSNTCYVEGVSDRLNCGFVTVPENPNKPDGKQIQVHYVVLPAVKNANHEEALLAIAGGPGQSAIDNAAGFDAMLSKVRQQRDILLIDQRGTGRSNLLTCDESANPLSLDDDSIDPSAETQKCLDKIDADVSQYGSLNAVKDFEAVRAHLGYKKLHIYGISYGTRMAQLYMRLYPEQLATVTLDGVVPMQQSVLEIGSAIDRGFELLFKDCQENTVCKQQFPQLKAEFEQVANTLAKGAITENVFDPVTGEKNQLIITRGKFYGAIRMALYQTNVRALVPHAIHQAANNHFQPLLGLYALTVDNAGIAMGMHTSVVCGEDIHRITPAMREKAASSYVGQTMLDSMEKTCAIWKVPAVDNSFSEPISSNIPTLLLSGEIDPATPPSWGELAMEKLTNAKHFIAPYATHGVAYQSCANGLVADLVRTGSINDLDGECLNKDVRRSFYLNASSVEPLNATSTKTTTTNNNASTGAKE | not soluble |
| EQAPQYVDETISLSAKTLFGFDKDSLRAEAQDNLKVLAQRLSRTNIQSVRVEGHTDFMGSDKYNQALSERRAYVVANNLVSNGVPVSRISAVGLGESQAQMTQVCEAEVAKLGAKVSKAKKREALIACIEPDRRVDVKIRSIVTRQVVPAHNHHQHLEHHHHHH | soluble |
| MVCLESDTCQSSQLLNTSFKRGFFSNLYPMIKRTAVERCPLFSVETGFYLKAPGILFVIERKKKQMNHETIQKLQFTTILKEVQTRAIGEYSKERLAKMVPATRLETVQSRLTETTEARLIIDSGQHVPFMGLSQITRLLQQVKKGLILTPNELIEVADFLRSSQRIQKFFEKNQYQTPRLFSYSQHLADFRAIEEQIYTKIHNQKVATDASRQLRKIRRQINECQQEIETKVTKFLRNKNNQLYIQENMMVKKGEHYTVPIKASYKNKVSGTIIEQSNKGQTVFIEPVAISKLNEQLTLLKAEETAEEYQILAELTGLINEQERLVDQAVDTMTTLDIIFARGKYSREIGGITPKVNKEERLRIVQGKHPLLLEHAVPLTFSLGAEYRGLVITGANAGGKTVVLKTVGLLTVMTQFGLQIPAQAGTEIPVLDEIFVDIGDQQNLENALSTFSGHMKNIAEMLRNVKRHTLVLLDEIGSGTEPNEGAGLAIAIMETMYQKGALVVATTHYGEIKRFAQEHDDFVPAAMAFDRETLTPKYQLKIGEVGDSQALWIARKMKMEPQLIEKAAHYIQRKEYPTNRSLFKPLKAKETTFATFVEETHRYQKGDRVLLTETQQIGLVFTDEGEQEIQVFVNDKIENVPRRRLKLQAKAQDLYPQDYDLESLFTDFHERKKLKDIERGSKKAQKQLRKEAEKRAARRDK | not soluble |
| MESVTRKSVLQLEERPGDSSSSSDEEINTIGNVPLDWYKDLSHIGYTRDGIKLLRRKRVGPLCPVYVKKGFYYLYDEKNDEEIALSRNDLKRLVSIVRLQNPSGATESGFVGEEIVFWTGTPRIEPIRNRNEPKRSFLPSRHEAAQVVKLVRSILRRKRIEELKEHKSEKEDLSIWEETSFEQVGRSHHYLPPPKTPLPGHEESYRPPPEFLLNEEEKSKRKENNELVPETYNFLRHVPLYTSLIREHFERCLELYCAPRMRVRRRKIDPEALLPKLPSPDTLRPFPDSQVASFGPHAGAIRAISLNSNGQWLACACQDGSVSIWEVATGICRIRIDFQEKLKEMLASFESLSQATESEMESMGQYEDLSILHVAWSPKENDFKLAVCIKHFVAVVNVAHILYPDEAQDSQSFGYSVVGEPSSNWKDWKDERGNLGRIAIIEHSRKVQHVHWHQRGDYFVVLTKNAFGSSLVVHQLSRKRTQSPFSKSAKGVITADFHPSKSLFFITTKHHVRIYDLAQAQLVNKLVTGISEISAMSVHPSGNHVLIGSVEGQLVWFDLDLSSRPYKRIRDHTYTVSSIAFHPTLPLFADASDDQTVAVFHATVYEDLLQNPLIVPLKVLKLPHNSKGTGVWSICWHPQLPWLFVSGIDEYVRLYADTS | soluble |
| YTDEEWGFLQNQMICDLCEGYAIYRPRYILPDYNVYIQKGCEFLELPPPKDLDEALDGLLILYSHVPSITTYPVYIGRLDVLLEPFITDEEKDYIKIKRFLNHIDKTVPDSFCHANIGPYDTKAGRLILRAVIDLEAPTPNMTIRYDKSKTSREFAELAAKACLLVSKPSFANDAYYISDLGEEYGVASCYNALPECGGAYTLTRLRLGTIARTCKSADEMLNELLPRVAKCALSTMDKRHKFVVEESNFFNSSFLEKEGFIKRTNFTGMFAIVGLADATNHLLQCEGLNETFGKSVRGDEIATAIMDKLKEITDAHEGVYAERTGNRYLLHAQVGASNHEEDKRNAPAHRIRVGEEPTLLAHLKQSAPFHKYFPSGTGDLFAFDQTYVDHCDAVVDIIDGAFSLGYRYITTYLKNTDLIRVTGYLVKKSEVEKYRKGEVALR | not soluble |
| TGRGVKYWFCYGTKCYYFIMNKTTWSGCKANCQHYSVPIVKIEDEDELKFLQRHVIPEGYWIGLSYDKKKKEWAWIDNGPSKFDMKIRKMNFKSRGCVFLSKARIEDTDCNIPYYCICGKKLDKFPD | soluble |
| MIKLRMPAGGERYIDGKSVYKLYLMIKQHMNGKYDVIKYNWCMRVSDAAYQKRRDKYFFQKLSEKYKLKELALIFISNLVANQDAWIGDISDADALVFYREYIGRLKQIKFKFEEDIRNIYYFSKKVEVSAFKEIFEYNPKVQSSYIFKLLQSNIISFETFILLDSFLNIIDKHDEQTDNLVWNNYSIKLKAYRKILNIDSQKAKNVFIETVKSCKY | soluble |
| MGSDKIHHHHHHMALANFIDRAATAASQVLADFHLEDFKAALEKQVVAVAFDDQAASCAEGQATLDLAVRLLARLYPVLAILPLGSAASFQAQALERLAKSINPKVGIRRSGKSATICVVAGVTRPPLRCPTFFMGSDGWAAKLSRTDPVGSGSSLLPYGAGAASCFGAANVFRTIFAAQLTGAELDETIDLSLYSYDKTKAGEAGPIDIPVDLGETHLVGLGAIGHGSLWALARQPGLTGRLHVIDHEAIELSNLQRYVLAGQAEIGMSKAVLAATALRSTAIGVEAHPLTWAEYVARHGDWVFDRVGVALDTAADRLAVQGALPRWIANAWTQEHDLGISRHGFDDGQACLCCMYLPSGKSKDEHHLIAEELGIPEAHEQVKTLLQTNAGVPNDFVVRVATAMAVPFEPLAPFVGQPLRSFYQQAICGGLVFQLSDGSRRVRTVVPMAFQSALAGIMLAAELVKHSAGFPVGPTTSTRVNLLRPLGSRLHDPKAKDSSGRCICSDDDFIAAYRRKYGKSIVQLSDVSAA | not soluble |
| MGLNDNKAGMEGLDKEKINKIIMEATKGSRFYGNELKKEKQVNQRIENMMQQKAQITSQQLRKAQLQVDRFAMELEQSRNLSNTIVHIDMDAFYAAVEMRDNPELKDKPIAVGSMSMLSTSNYHARRFGVRAAMPGFIAKRLCPQLIIVPPNFDKYRAVSKEVKEILADYDPNFMAMSLDEAYLNITKHLEERQNWPEDKRRYFIKMGSSVENDNPGKEVNKLSEHERSISPLLFEESPSDVQPPGDPFQVNFEEQNNPQILQNSVVFGTSAQEVVKEIRFRIEQKTTLTASAGIAPNTMLAKVCSDKNKPNGQYQILPNRQAVMDFIKDLPIRKVSGIGKVTEKMLKALGIITCTELYQQRALLSLLFSETSWHYFLHISLGLGSTHLTRDGERKSMSVERTFSEINKAEEQYSLCQELCSELAQDLQKERLKGRTVTIKLKNVNFEVKTRASTVSSVVSTAEEIFAIAKELLKTEIDADFPHPLRLRLMGVRISSFPNEEDRKHQQ | soluble |
| MVDKAGNPLTVDDISQCHLPGFPILFTQNELLEILAKEIFKQQFLWKSVQDKDIKECNKEERIIKQIPLMPRCPDVLKGLFHCIEIRDERSPKHAIAYKSCLGKLEEMVKDQWDDWNRNQS | not soluble |
| RRNLGGRLYLVTYGKAAALHLDPVEKKPLYHFHPGEGILSVGTVGCNLFCAFCQNWQISQFREFRVSPEGRLDRPIGEDWPPKRLVAEAEALGVRLLAYTYNEPAVWIEYAHDTARLAKARGMKNVFVTSGFETKEAWDYIRPHLDAANVDLKGFTEKFYREVCGARLKPVLESLGHLVASGVWVEVTTLLLEGYNDSDEEVRAMARFLKGLSPDIPWHLTAAHPDYRMLDLRSTRHATLVRAHAIAK | not soluble |
| MVVGGFGVGKTTLVRSVSEIRPLSTEETMTRAGETVDDISEVRGKSATTVAFDFGRISLDTRNILYLFGAPGQERFWFLWDRLFAGTLGAVVLVDTRRIDDSWYAIDRLERHGTPFIVACNDFGGPAHTPEQIREALDLDPHVPLIDCDARSRESSKRVLITLVEHLKSLYVPRAPELALLEHHHHHH | not soluble |
| MSLAAGADAGPGPEPCATLVQGKFFGYFSAAAVFPANASRCSWTLRNPDPRRYTLYMKVAKAPVPCSGPGRVRTYQFDSFLESTRTYLGVESFDEVLRLCDPSAPLAFLQASKQFLQMRRQQPPQHDGLRPRAGPPGPTDDFSVEYLVVGNRNEGHHHHHH | not soluble |
